B1: F-box only protein 4 (Homo sapiens), Q9UKT5 (parent)
chain: MAGSEPRSGTNSPPPPFSDWGRLEAAILSGWKTFWQSVSKERVARTTSREEVDEAASTLTRLPIDVQLYILSFLSPHDLCQLGSTNHYWNETVRDPILWRYFLLRDLPSWSSVDWKSLPDLEILKKPISEVTDGAFFDYMAVYRMCCPYTRRASKSSRPMYGAVTSFLHSLIIQNEPRFAMFGPGLEELNTSLVLSLMSSEELCPTAGLPQRQIDGIGSGVNFQLNNQHKFNILILYSTTRKERDRAREEHTSAVNKMFSRHNEGDDQQGSRYSVIPQIQKVCEVVDGFIYVANAEAHKRHEWQDEFSHIMAMTDPAFGSSGRPLLVLSCISQGDVKRMPCFYLAHELHLNLLNHPWLVQDTEAETLTGFLNGIEWILEEVESKRAR
B2: 14-3-3 protein epsilon (Rattus norvegicus (Rat)), P62260 (parent)
chain: MDDREDLVYQAKLAEQAERYDEMVESMKKVAGMDVELTVEERNLLSVAYKNVIGARRASWRIISSIEQKEENKGGEDKLKMIREYRQMVETELKLICCDILDVLDKHLIPAANTGESKVFYYKMKGDYHRYLAEFATGNDRKEAAENSLVAYKAASDIAMTELPPTHPIRLGLALNFSVFYYEILNSPDRACRLAKAAFDDAIAELDTLSEESYKDSTLIMQLLRDNLTLWTSDMQGDGEEQNKEALQDVEDENQ

How the values were obtained:
[1] = variants of: B1; details: with 1433e_mouse Ywhae
[2] = variants of: B1; details: with 1433e_human YWHAE
1433e_rat Ywhae, P62260 = variants of: B1; details: with 1433e_rat Ywhae, P62260
[3] = variants of: B1; details: with 1433e_human YWHAE; remark: listed apart in the source
fbx4_human FBXO4, Q9UKT5 = variants of: B2; details: with fbx4_human FBXO4, Q9UKT5

Variant	effect of a mutation on the interaction [1]	effect of a mutation on the interaction [2]	effect of a mutation on the interaction (1433e_rat Ywhae, P62260)	effect of a mutation on the interaction [3]	effect of a mutation on the interaction (fbx4_human FBXO4, Q9UKT5)
S12A	disrupting interaction	disrupting interaction	decreasing interaction	–	–
S8R	disrupting interaction	disrupting interaction	decreasing interaction	decreasing interaction	–
K50E	–	–	–	–	disrupting interaction

Source: IntAct's records for PubMed 21242966
